# Source: the supplement of paper PMC10567573
# ± gives the standard deviation.
# Experiment: protein stability index of a GFP-peptide fusion (GPS, HEK-293T) (PSI 1-6); higher = more stable
# Conditions: c terminus: a fixed tail appended
# 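Further: 24-mer peptide tiles fused after GFP, lentivirally expressed, FACS-sorted into six equal bins by GFP/DsRed ratio, decoded by Illumina sequencing, PSI is the read-weighted mean bin number.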
Sequence,protein stability index (treatment: DMSO),"protein stability index (treatment: MLN4924 1 uM, 8 h)"
GEINVEMDAAPGVDLSRILNEMRD [KRT17],4.03 ± 0.22,3.99 ± 0.14
SASEILYSAPPGDPLSTNYSLAPN [NFE2L1],4.16 ± 0.29,4.12 ± 0.28
SDNILSPVMNGGVQTWTQPRLCYL [PDZK1],2.19 ± 0.31,2.46 ± 0.56
ECVVAMHQAQLISKIPHILKEMYD [EIF5],2.78 ± 0.38,2.32 ± 0.5
DIRAKKIASIADVCESMKEQLLVL [HNF4A],2.5 ± 0.35,2.26 ± 0.22
FWRIDEDYPVQVAPLSNGLCCAFS [WSB1],2.06 ± 0.43,2.41 ± 0.39
QSGGRLRRPVNVPLDMFSEEIKFY [KCNA1],2.52 ± 0.28,2.75 ± 0.28
GRARFTTYEVRMRTNLPIFKLKES [SNX12],2.27 ± 0.11,2.17 ± 0.22
QASAAPAAPLPERNSLSAIFNNVM [SLC29A1],3.55 ± 0.094,3.5 ± 0.14
EESILERVQQHIESKLLGSNSSRM [MLH1],3.96 ± 0.15,3.92 ± 0.11
VTLALFFVLYFLLACWTYGISVPS [CLCN6],2.95 ± 0.27,2.98 ± 0.19
GSAPNSPMALLTIGSSSEKEIDDV [TFE3],5.26 ± 0.28,5.55 ± 0.18
RFLANEVLQENYTHLPKADIFALA [WEE1],2.27 ± 0.2,2.33 ± 0.41
LKKPIKGKQAPRKKAQGKTQQNRK [KMT5A],4.29 ± 0.2,4.45 ± 0.23
MQLPPALCARLAAGPGAAEPLPVE [ZNF511],3.97 ± 0.18,3.86 ± 0.11
